Laboratory results from patent publication US20130224235A1.

Legend:
Experiment in all cases: indirect ELISA, protein coated, serum 1:100
[1] = target: 6xHis tagged C-terminal fusion protein (gp100 209-217(2M) peptide fused to PVA CP C-terminus) expres (Potato virus A (isolate B11)) (UniProt Q85197)
[2] = target: 6xHis tagged N-terminal fusion protein (gp100 209-217(2M) peptide fused to PVA CP N-terminus) expres (Potato virus A (isolate B11)) (UniProt Q85197)
[3] = target: 6xHis tagged wild type potato virus A coat protein (wtCP) expressed in E. coli from wtCP/pQE (Potato virus A (isolate B11)) (UniProt Q85197)

Measured: optical density at 450 nm

control mouse serum raised against PBS (antibody)
< 0.35 OD 450 nm: all assays above
